System: K4 kissing-loop RNA reporter
Assay: apparent KD of K4 kissing-loop reporter; higher = weaker reporter binding
Conditions: Eterna round: R107
Method: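 RNA-MaP round R107: designed RNA switches with theophylline, tryptophan, arginine or FMN aptamers are transcribed on-chip within common flanks. They are titrated with a labelled K4 kissing-loop RNA reporter in RNA-MaP buffer (100 mM Tris pH 7.5, 80 mM KCl, 4 mM MgCl2), without ligand or with the indicated ligand. Median apparent KD per design.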

[1] = input ligand: theophylline 20 uM
[2] = input ligand: tryptophan 2.4 mM
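Also: bound reporter read as fluorescence of individual clusters on recovered sequencing chips by microscopy, with normalized cluster intensities fitted with a binding model.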

| Sequence | apparent KD of K4 kissing-loop reporter (input ligand: FMN 200 uM) | apparent KD of K4 kissing-loop reporter (input ligand: arginine 13.2 mM) | apparent KD of K4 kissing-loop reporter (input ligand: none) | apparent KD of K4 kissing-loop reporter [1] | apparent KD of K4 kissing-loop reporter [2] |
| --- | --- | --- | --- | --- | --- |
| AUGGCACGACUUGCCCACAAUGUCUAUGCCCGAGGACCGGUACGGCCGCCACUCGGAUGCCGUGUCUUAUUAGUGAUGUUGAUAC [theeternabot_sameState_KL_Trp_A_4] | 355 nM | 204 nM | 411 nM | 355 nM | 199 nM |
| AUGGUUGUCGUAGGAUAUGUAGGAUAUUCCUAUAGCAGUGAUGUUGCUAAUAUCUUGGAAAGAAGGACAGAAGGACGAUAACCAC [KL-SSFMN-B2 #analogue] | 114 nM | 112 nM | 119 nM | 108 nM | 111 nM |
| AUGUAUGAAUUAGGAUAUCGUUAGCCUUGCAUAUAUAUGAUAAAUGGAUAUGUCGUAGUGAUGUUACGAGAAGGAGUGUGGAGUA [KL-XFMN-B5] | 44.6 nM | 50.5 nM | 38.9 nM | 63.4 nM | 30.2 nM |
| AUGUAUGAAUUAGGAUAUCGUUAGCCUUUCAUAUAUAUGAUAAAUGGAUAUGUCGUAGUGAUGUUACGAGAAGGAGUGUGGAGUA [KL-XFMN-B8] | 49.3 nM | 52.9 nM | 38.2 nM | 64.6 nM | 30.5 nM |
| AUGUUGAGCGGAAGGAGCGGCUGAGCCAGUGAUGUUGGUUAAUCCAAGUGAUGUUGGAAAAGCCAGGUAGGUCGCCGUUUUACGU [whbob_SS_Arginine_B_2t145] | 1010 nM | 597 nM | 1190 nM | 807 nM | 887 nM |
| AUUAAUAACAGAGGAUAUGCAUUUUUAUUAUUUUUUAUUAUUAUAUGCAGUGAUGUUGCAUAUUAAGCAGAAGGCUGAUUUAUUU [JR_SSFMNB_Sub013] | 117 nM | 105 nM | 79 nM | 110 nM | 102 nM |
| AUUAAUAUCACGGCCGCCACUGAAUAUUGUUUUUAUAUUUAGAAUAAUUGCCAGUGAUGUUGGAUCAGGACCGGGUGAUUUUAUA [JR_SSTryptoB_Sub008] | 775 nM | 489 nM | 727 nM | 739 nM | 360 nM |
| AUUAAUUUCAGAGGAUAUCGUAUUUAUAUUAUAUCUUUCCAUAUUUGCAGUGAUGUUGCAUUAAUUCGAGAAGGCUGAUUUAUAA [JR_Nu_ExcFMNB_Sub024] | 86.1 nM | 91 nM | 60.4 nM | 82.4 nM | 53.7 nM |
| AUUAAUUUCAGAGGAUAUCGUUAUUUUUUAUAGUAUAUUCAAUUAUGCAGUGAUGUUGCUAUUAAUCGAGAAGGCUGAUUUAUAA [JR_ExcFMNB_Sub002] | 179 nM | 204 nM | 156 nM | 250 nM | 112 nM |
| AUUCAGAUCUGAAGGAGCGCGUUGACAUAUUGCUUCAUUGAGCAGUGAUGUUGCUCAGUAACGCAGGUAGGUCGCAGAUCUGGCC [Arg B Ex t7a] | 113 nM | 110 nM | 99 nM | 92.3 nM | 104 nM |
| AUUCAUUUCAGAGGAUAUCGAUGGAGAGUGAUGUUCUCCCAUAGCCAGUGAUGUUGGCUAGCUAUUCGAGAAGGCUGUGGGUGGA [Same State FMN B GF 27] | 141 nM | 227 nM | 210 nM | 202 nM | 208 nM |
| AUUCGCAGUGAUGUUGCGAUUCCGUUGAGGGAGGAUAUUGGUAAUACAAGAAGGCCCGGCUGCGGGUGAUGUUCGCAUUAGGGCC [Exclusion FMN A GF18] | 151 nM | 143 nM | 146 nM | 153 nM | 126 nM |
| AUUCGCUCCACUGAUACCAGUCAUCGAGCAAGAUGCUAAGCCAGUGAUGUUGGCAUGAAUGACCCUUGGCAGCAGUACACUAAGG [Theo B SS t7] | 65.4 nM | 106 nM | 75.6 nM | 113 nM | 60 nM |
| AUUCUAUUGUGAAGGAGCGCGUAUAGUAGUGAUGUUACUAUAAUAAUAGAUAUUUAAUUCUCGCAGGUAGGUCGCACAAUAUAUA [JR_Nu_ExcArginiB_Sub025] | 102 nM | 82.6 nM | 96.3 nM | 85.6 nM | 92 nM |
| AUUCUGUUUUUGAUGUUUUUUGUAUAAUGGCAGGAUAUCGUAGAAGCGAGAAGGGCUUUUAUGCGUUAUGAGUGAUGUUUGUAGG [ttytewvmullin] | 298 nM | 222 nM | 271 nM | 275 nM | 227 nM |
| AUUGUACAAGUGAUGUUUGUUUUUUCCGAAGGAGCGUCUAAUAAGACAGGUAGGUCGCGGAUUCUCUUAAUAAUCAGGUCAUUAA [JR_Nu_ExcArginiA_Sub020] | 364 nM | 275 nM | 305 nM | 281 nM | 221 nM |

| Sequence | apparent KD of K4 kissing-loop reporter (input ligand: FMN 200 uM) | apparent KD of K4 kissing-loop reporter (input ligand: arginine 13.2 mM) | apparent KD of K4 kissing-loop reporter (input ligand: none) | apparent KD of K4 kissing-loop reporter [1] | apparent KD of K4 kissing-loop reporter [2] |
| --- | --- | --- | --- | --- | --- |
| AUUUAAUGUAUAGAUUAUAUACAUAAUUCAGAGGAUAUGCAUAGAAGCAGAAGGCUGGUUGCAGUGAUGUUGCUUUUUUAAUUUA [JR_SSFMNA_Sub008] | 30.9 nM | 125 nM | 76.7 nM | 185 nM | 63.8 nM |
| AUUUAGACGAGUGAUGUUCGUGUUAUUACAGAGGAUAUGCGUAAUUGCAGAAGGCUGUAUUUAUAUAUGUUAUGUAGUUUUAAAA [whbob_Ex_FMNA__2th184] | 87.3 nM | 108 nM | 84.8 nM | 94.8 nM | 74.1 nM |
| AUUUGUUUAUGCGAUACCAGACUAAGCAGUGAUGUUGCUUUUAUUUUUGAAUUUUAAAUAGUCCCUUGGCAGCGCUAUGUCUGUA [#06 K4 Theophylline B Same State] | 127 nM | 200 nM | 183 nM | 217 nM | 119 nM |
| AUUUGUUUAUGUGAUACCAGACUUUGCAGUGAUGUUGCAUUUAUUUUAGAAUAUAAUUUAGUCCCUUGGCAGCACUAUGUAUUUA [JR_SSTheophyB_Sub008] | 67.1 nM | 110 nM | 73.8 nM | 109 nM | 63.4 nM |
| AUUUUAUUAACUGAUACCAGACUUAAUGAAUUGUAAAUUACUAGUGAUGUUAGUGAUUCUGUCCCUUGGCAGCAGUAUUUAUUAA [JR_ExcTheophyB_Sub012] | 129 nM | 146 nM | 139 nM | 141 nM | 118 nM |
| AUUUUGGUUUAGAGUGAUGUUCCUUGUAUUCGAGGACCGGUACGGCCGCCACUCGAAUAGAAAAGAAAAGAAAUGUUUGAUUUUU [BDazzled - #7 SS Tryptophan A] | 406 nM | 211 nM | 556 nM | 351 nM | 361 nM |
| AUUUUUUUGUCAGGAUAUUAGUAUGCGUUUGGUUUGUUAGUGAUGUUGAUAUUUUGUUUAUGUAUUUAAGAAGGGAUUUAGCGGU [yyitemullin] | 497 nM | 348 nM | 511 nM | 497 nM | 359 nM |
| AUUUUUUUGUCAGGAUAUUAGUGUGCGUUUGGUUUGUUAGUGAUGUUGAUAUUUUGUUUAUGUAUUUAAGAAGGGAUUUAGCGGU [aaeatemullin] | 534 nM | 436 nM | 501 nM | 504 nM | 349 nM |
| AUUUUUUUGUCAGGAUAUUAGUGUUGGUUUGGUUUGUUAGUGAUGUUGAUAUUUGUUUUAUGUAUUUAAGAAGGGAUUUAGCGGU [wxooemullin] | 420 nM | 379 nM | 364 nM | 458 nM | 293 nM |
| CAAACUCUGACGGCCGCCACUAAUCGUGUAACAGUGAUGUUGUUACAUCAAAGAUGGGUUGCGUGUAGGACCGGGUCGACGCAAA [theeternabot_exclusion_KL_Trp_B_48] | 131 nM | 120 nM | 120 nM | 111 nM | 124 nM |
| CAAAUAUGCGGUAGGUUCAAGCGCUGGGAAGGAGCGCAGAUGACUGCAGGUAGGUCGCCCAGUGAUGUUGGGCUUUCCACCUAUU [Edbeaan] | 123 nM | 124 nM | 132 nM | 146 nM | 121 nM |
| CAAUGAGUAUAAGAUGAUAUCAUCACAGAAGGAGCGAGUGAUAACUCAGGUAGGUCGCUGAAUUUAUCGAGUGAUGUUCGAUAGA [whbob_SS_Arginine_A_sa118] | 207 nM | 158 nM | 199 nM | 175 nM | 170 nM |
| CACCAUGAAUUCUCUAGGAGUGAUGUUUUUCGAGGACCGGUACGGCCGCCACUCGGACCAGGAACGUGGGAGCGGCGAAAAGACU [ttmullin] | 656 nM | 438 nM | 688 nM | 494 nM | 373 nM |
| CACCGCAACUGAAGGAGCGCGCCAGUGAUGUUGGACGGCUUUGUCAAGGAAACUGCACCGGUGCAGGUAGGUCGCAGUUCGCGGC [Ededisa] | 319 nM | 256 nM | 366 nM | 278 nM | 259 nM |
| CACCGGACGAAAGAUACCAGUUACUAUAUUAGGGUGCCUUGGCUAGUGAUGUUAGAGAGUAACCCUUGGCAGCUUUGGUACUUAU [theeternabot_exclusion_KL_Theo_B_21] | 380 nM | 367 nM | 390 nM | 319 nM | 335 nM |
| CACGAUGAAUUCUCUAGGAGUGAUGUUUUUCGAGGACCGGUACGGCCGCCACUCGGACGACGAGCGUGGUAGCGGCGUGAAGACU [zamullin] | 365 nM | 276 nM | 625 nM | 459 nM | 452 nM |

From the supplement of paper PMC9170038
